{"source": "paper PMC7530888", "about": "(Nucleic Acids Research, 2020)", "key": {"MtbXthA [1]": {"test_system": "MtbXthA", "experiment": "Effect on AP-endonuclease activity of MtbXthA", "assay_type": "biochemical, M. tuberculosis", "details": "N1, MtbXthA 10 nM, added protein 5-100 nM; pH 7.8, 37°C, 10 min"}, "[2]": {"experiment": "Small angle X-ray scattering", "assay_type": "physicochemical, M. tuberculosis", "details": "from P(r); for Dmax: BM29 ESRF, 10°C, pH 8.0"}, "[3]": {"assay_type": "physicochemical, M. tuberculosis", "details": "Superdex 200 increase 10/30; pH 8.0; calibrated with protein standards"}, "MtbXthA^ID": {"test_system": "MtbXthA^ID", "experiment": "Effect on endonuclease activity of MtbXthA^ID", "assay_type": "biochemical, M. tuberculosis", "details": "N1 20 nM, MtbXthA^ID 10 nM, MtbLigA 5-100 nM"}, "MtbXthA [4]": {"test_system": "MtbXthA", "experiment": "SEC co-elution with MtbXthA", "assay_type": "binding, M. tuberculosis", "details": "Superdex 200; pH 8.0; SDS-PAGE of fractions"}, "[5]": {"test_system": "THF containing AP-DNA (N1)", "experiment": "Gel shift assay, THF AP-DNA", "assay_type": "binding", "details": "N1 10 nM, MtbLigA 0-40 µM"}, "[6]": {"test_system": "nicked duplex DNA substrate (L2)", "experiment": "Ligation of nicked AP-DNA with 5′p-THF", "assay_type": "biochemical", "details": "L2 10 nM, MtbLigA 0.01-20 nM"}, "[7]": {"test_system": "apurinic/ apyrimidinic DNA (AP-DNA) substrate (N1)", "experiment": "AP-endonuclease assay on THF AP-DNA", "assay_type": "biochemical", "details": "no MtbXthA"}, "[8]": {"test_system": "nicked duplex DNA substrate (L1)", "experiment": "In vitro ligation of nicked duplex DNA", "assay_type": "biochemical", "details": "L1 10 nM, MtbLigA 5 nM alone; 50 μM NAD^+, pH 7.8, 37°C, 3 min; SD ±2.5"}, "mimic DNA substrate (L3)": {"test_system": "mimic DNA substrate (L3)", "experiment": "Ligation of true incised abasic site mimic with 5′-dRP", "assay_type": "biochemical", "details": "L3 treated with uracil DNA glycosylase; MtbLigA 0.01-20 nM"}}, "data": [{"substance": "BSA: BSA, control for macromolecular crowding [reference compound]", "values": [{"measurement": "effect on AP-endonuclease activity of MtbXthA", "setting": "MtbXthA [1]", "value": "exerted no effect"}]}, {"substance": "MtbLigA+Nicked DNA: MtbLigA in complex with 27-mer nicked DNA (S1)", "values": [{"measurement": "Dmax", "setting": "[2]", "value": 14.79, "unit": "nm"}, {"measurement": "Stoke's radii", "setting": "[3]", "value": 3.19, "unit": "nm"}]}, {"substance": "MtbLigA: M. tuberculosis NAD^+-dependent DNA ligase A, full-length", "values": [{"measurement": "Dmax", "setting": "[2]", "value": 16.7, "unit": "nm"}, {"measurement": "Dmax in presence of nicked DNA", "setting": "[2]; presence of nicked DNA substrate (S1)", "value": 14.79, "unit": "nm"}, {"measurement": "effect on incision activity of MtbXthA^ID", "setting": "MtbXthA^ID", "value": "reduction in incision activity"}, {"measurement": "Stoke's radii", "setting": "[3]", "value": 4.02, "unit": "nm"}, {"measurement": "effect on AP-endonuclease activity of MtbXthA", "setting": "MtbXthA [1]", "value": "progressive decrease in product formation"}, {"measurement": "interaction with MtbXthA by SEC", "setting": "MtbXthA [4]", "value": "co-eluted"}, {"measurement": "complex with THF AP-DNA (in words)", "setting": "[5]", "value": "did not form a complex with THF containing AP-DNA"}, {"measurement": "ligation of nicked AP-DNA (in words)", "setting": "[6]", "value": "could ligate the nicked AP-DNA"}, {"measurement": "effect on AP-DNA substrate alone (in words)", "setting": "[7]", "value": "no effect on the AP-DNA substrate"}, {"measurement": "DNA ligation", "setting": "[8]", "value": 75, "unit": "%"}, {"measurement": "ligated product (in words)", "setting": "mimic DNA substrate (L3)", "value": "progressive increase in the ligated product"}]}]}
